Where a chain is given by its changes, count along the chain named. Names and notes keep the numbering of the source. Each block holds one binder with its values, some of them ahead of it.
Legend:
[1] = target: T1, human PD-L1 expressed on mammalian cells (human, UniProt Q9NZQ7 19-290); experiment: FACS on PD-L1 Raji cells by the text; the axis unit is printed only as 'ng', no volume
T1 construct: whole, on cells; The cell line (CHOK1 or Raji) is named under assay in each row; also called PDL1-CHOK1 cells; PD-L1 Raji cells
T1 sequence (Q9NZQ7 19-290): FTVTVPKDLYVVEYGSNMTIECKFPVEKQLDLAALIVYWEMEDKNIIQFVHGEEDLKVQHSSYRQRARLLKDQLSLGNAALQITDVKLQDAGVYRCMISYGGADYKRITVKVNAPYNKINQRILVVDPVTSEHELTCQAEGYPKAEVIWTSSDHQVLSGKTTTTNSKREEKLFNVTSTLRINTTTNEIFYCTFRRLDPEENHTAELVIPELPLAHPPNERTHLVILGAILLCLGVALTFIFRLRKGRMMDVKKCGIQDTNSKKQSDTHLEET
Method: Briefly, PD-L1 Raji cells were first incubated with 5-fold serially diluted humanized antibodies starting at 2 μg/ml at RT for 1 hour. After wash by FACS buffer (PBS with 2% FBS), the Alexa 488-anti-human IgG antibody was added to each well and incubated at RT for 1 hour. The MFI of Alexa 488 were evaluated by FACSAriaIII.

[2] = target: T2, PD-L1 Y134 alanine-scan mutant (human, UniProt Q9NZQ7 19-290, limits assumed); experiment: alanine-scan library, high-throughput flow cytometry; threshold for critical clones
T2 construct: Read by flow cytometry
T2 sequence (Q9NZQ7 other isoform, or with tags, fused parts or gaps mutant limits assumed): as the sequence (Q9NZQ7 19-290) above, with Y116A counted along it
Source text: (§1) An alanine-scan library of PD-L1 was constructed. Briefly, 217 mutant clones of PD-L1 were generated on Integral Molecular's protein engineering platform. […] For each PD-L1 variant, the mean binding value was plotted as a function of expression (control anti-PD-L1 mAb reactivity).

[3] = target: T3, PD-L1 K162 alanine-scan mutant (human, UniProt Q9NZQ7 19-290, limits assumed); experiment: as above
T3 construct: Read by flow cytometry
T3 sequence (Q9NZQ7 other isoform, or with tags, fused parts or gaps mutant limits assumed): as the sequence (Q9NZQ7 19-290) above, with K144A counted along it
Source text: as §1

PD-L1 N183A clone = target: T4, PD-L1 N183A clone (human, UniProt Q9NZQ7 19-290, limits assumed); experiment: as above
T4 construct: Read by flow cytometry
T4 sequence (Q9NZQ7 19-290 N183A limits assumed): as the sequence (Q9NZQ7 19-290) above, with N165A counted along it
Source text: as §1

EC50 (read off the curve) [1]: ~0.5 ng
B1: Hu1210-41 (antibody, V domains shown)
VH: EVQLVESGGGLVQPGGSLRLSCAASGFTFSSYDMSWVRQAPGKSLEWVATISDAGGYIYYSDSVKGRFTISRDNAKNSLYLQMNSLRDEDTAVYICAREFGKRYALDYWGQGTTVTVSS
VL: DIQMTQSPSSLSASVGDRVTITCKASQDVTPAVAWYQQKPGKAPKLLIYSTSSRYTGVPSRFSGSGSGTDFTFTISSLQPEDIATYYCQQHYTTPLTFGQGTKLEIK
notes: Humanized; also called Hu1210-41 antibody; parental antibody Hu1210-41

EC50 (read off the curve) [1]: ~0.4 ng
B2: WT (S60R mutant of Hu1210-41) (antibody, V domains shown)
VH: B1 VH with S61R
VL: B1 VL
notes: Differs from Hu1210-41 by S60R (Kabat) in the heavy chain; Detected with anti-human IgG; also called S6OR (CDRH2) mutant; parental antibody WT

% WT reactivity [2]: < 30 % of WT | % WT reactivity [3]: < 30 % of WT | % WT reactivity (PD-L1 N183A clone): < 30 % of WT
B3: Hu1210-41 Fab (Fab, V domains shown)
VH: B1 VH
VL: B1 VL

From patent US20220119531A1 (I MAB BIOPHARMA US, published 2022)
